Drawing on article PMC7641127 (2020), this text covers IC50 for 3 molecules.

For orientation: IC50 means the concentration that inhibits the measured activity by half.

To fix the notation:
T1: recombinant MCL1 (human, UniProt Q07820 1-350)
T1 chain: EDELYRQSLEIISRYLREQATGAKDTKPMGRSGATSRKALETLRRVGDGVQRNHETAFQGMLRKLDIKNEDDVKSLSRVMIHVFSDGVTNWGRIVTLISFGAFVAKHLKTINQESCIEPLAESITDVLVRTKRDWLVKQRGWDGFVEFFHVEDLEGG

B1: p73TD-derived peptide β1α1 (peptide)
chain: DEDTYYLQVRGRENFEILMKLKESLELMELV-NH2
B2: p73TD-derived peptide α1α2 (peptide)
chain: RENFEILMKLKESLELMELVPQPLVDSYRQQQQLLQR
B3: p73TD-derived peptide α1 (peptide)
chain: RENFEILMKLKESLELMELV

No end group written: not given here.

This assay has as its target T1, recombinant MCL1. Description: FP.
B1: the IC50 is 1.09 µM. Under B2 stands 0.882 µM; under B3, 2.63 µM.
